Drawing on article PMC13316113, “RNA-induced PRC2 inhibition depends on the sequence of bound RNA”, this text covers Kd, binding result and binding signal for 6 molecules.

Series [1] has as its target T1, six-subunit PRC2 (EZH2-EED-SUZ12-RBAP48-AEBP2-JARID2) (UniProt Q15910-2;O75530;Q15022;Q09028;Q6ZN18-2;Q92833 …). Briefly: EMSA; 100 mM KCl; EMSA: 50 mM Tris-HCl pH 7.5 (25 C), 100 mM KCl (or LiCl), 2.5 mM MgCl2, 0.1 mM ZnCl2, 2 mM 2-mercaptoethanol, 0.05 mg/ml BSA, 0.05 mg/ml yeast tRNA, 5% glycerol, 30 C 30 min. Particulars: protein: recombinant, tags: His (EZH2), Strep-GFP (AEBP2, JARID2), TEV treated, AEBP2 retains 7 extra N-terminal aa, copies: 1;1;1;1;1;1, label: 32P 5' (EMSA). On the technique in general: In EMSA bound probe runs differently from free probe, usually more slowly.

The target of series [2] is six-subunit PRC2 AEBP2del261-389 (UniProt Q15910-2;O75530;Q15022;Q09028;Q6ZN18-2;Q92833 …, internal_change). Briefly: EMSA; P = 0.05 vs WT; EMSA: 50 mM Tris-HCl pH 7.5 (25 C), 100 mM KCl (or LiCl), 2.5 mM MgCl2, 0.1 mM ZnCl2, 2 mM 2-mercaptoethanol, 0.05 mg/ml BSA, 0.05 mg/ml yeast tRNA, 5% glycerol, 30 C 30 min. Particulars: protein: recombinant; copies: 1;1;1;1;1;1; label: 32P 5' (EMSA); no G4.

For series [3], the target named is T1, six-subunit PRC2 …. Briefly: UV crosslinking; very low crosslinking efficiency despite saturated binding; EMSA: 50 mM Tris-HCl pH 7.5 (25 C), 100 mM KCl (or LiCl), 2.5 mM MgCl2, 0.1 mM ZnCl2, 2 mM 2-mercaptoethanol, 0.05 mg/ml BSA, 0.05 mg/ml yeast tRNA, 5% glycerol, 30 C 30 min. The following applies: protein: recombinant; tags: His (EZH2), Strep-GFP (AEBP2, JARID2); TEV treated; AEBP2 retains 7 extra N-terminal aa; copies: 1;1;1;1;1;1; label: 32P; G4.

Series [4] concerns the target T1, six-subunit PRC2 …. The series is described as follows: EMSA; 100 mM KCl; EMSA: 50 mM Tris-HCl pH 7.5 (25 C), 100 mM KCl (or LiCl), 2.5 mM MgCl2, 0.1 mM ZnCl2, 2 mM 2-mercaptoethanol, 0.05 mg/ml BSA, 0.05 mg/ml yeast tRNA, 5% glycerol, 30 C 30 min. Particulars: protein: recombinant, tags: His (EZH2), Strep-GFP (AEBP2, JARID2), TEV treated, AEBP2 retains 7 extra N-terminal aa, copies: 1;1;1;1;1;1, label: 32P 5' (EMSA). The source holds these as a separate data set.

Consider UUUUUUUUUUUUUUUUUUUUUUUUUUUUUUUUUUUUUUUUUUUUUUUUUU (ssRNA) [Poly(U)], for which the Kd in series [1] (single strand) is 28 ± 4 nM.

On to AAAAAAAAAAGAGAGAGAUGAGUGUGAGUGUGAGUGUGAGUGAGAGAGAG (ssRNA) [TERRAmut], for which the values for the dissociation constant Kd in series [2] and in series [1] (no G4) were 112 ± 24 nM and 66 ± 15 nM, respectively. Take AAAAAAAAAAGAGAGAGAUUAGGGUUAGGGUUAGGGUUAGGGAGAGAGAG (structured_RNA) [TERRA]: the dissociation constant (Kd) in series [1] (single intramolecular G4 in K+) amounted to 18 ± 9 nM.

B1: 2G4 (structured_RNA)
RNA: AAAAAAAAAAGGGAAGGGAAGGGAAGGGAACAACAACAACAACAAGGGAAGGGAAGGGAAGGGAA
As to B1, the binding result in series [3] is reported as “binds”. As for AAAAAAAAAAGUGUGUGUGUGUGUGUGUGUGUGUGUGUGUGUGUGUGUGU (structured_RNA) [pUG-fold], in series [4] (atypical G4 (pUG-fold: three G quartets and one U quartet)), the binding signal was ~2 fold weaker than TERRA/Poly(U)/Poly(C).

Take UUUUUUUUUUCUCUUUCUCUCCUUCUCUUCCUCUCUCUCCUCUUUCUCUC (ssRNA) [P10]: in series [4] (single strand), the binding signal is ~4 fold weaker than TERRA/Poly(U)/Poly(C).

What is called Kd is a measure of binding affinity in units of concentration.
